Measured values taken from patent US8420051B2, “Muteins of hNGAL and related proteins with affinity for a given target” (Technische Universitaet Meunchen, priority 2008, dated 2013).
Read-outs that look alike come from different tables or passages of the source. One block for each molecule: values may come before it.

Key:
[1] = target: selected hNGAL muteins from the library randomized at positions 33, 36, 41, 52, 54, 68, 70, 79, 81, 134, 136 and 138 (Homo sapiens, UniProt P80188); assay: ELISA, hexachloronorbornene hapten; type: binding; settings: preliminary, data not shown
From the text: The hNGAL library obtained in Example 2 was used to generate muteins having affinity to a hexachloronorbonene hapten. In more detail, the hexachloronorbornene hapten used was hexachloronorbornene N—(CH2)5—COOH the synthesis of which was reported by Hilvert et al., J. Am. Chem. Soc. 1989, Vol. 111, 9261-9262 (compound 2 in FIG. 1 of Hilvert et al) which represents a transition state analogue for the [4+2] Diels-Alder reaction (see also, Xu et al., Science, 1999, Vol. 286, 2345-2348). Generation of the hNGAL muteins were carried out essentially in accordance with the experimental procedure as described in Example 3 above and muteins with binding activity to the to hexachloronorbornene hapten were isolated and characterized by ELISA.

[2] = target: T1, hNGAL mutein Tb7, SEQ ID NO: 2 (Gln28His, Val33Gln, Leu36Arg, Ile41Ala, Tyr52Thr, Thr54Gln, Ser68Ala, Leu70Arg, Trp79Ala, Arg81Met, Cys87Ser, Lys134Ser, Tyr138L (Homo sapiens, UniProt P80188, C107S/I61A/K154S/L56R/L90R/Q48H/R101M/S88A/T165A/T74Q/V53Q/W99A/Y158L/Y72T)); assay: SPR (Biacore), immobilized Me•DTPA-RNase; type: binding; settings: 5 μl/min; for Kd: from the kinetic analysis, read-out: KD
T1 construct: the mature hNGAL protein and the C-terminal Strep-tag II; OmpA signal peptide (N, cleaved yes); made in house; host or cells: E. coli BL21 or TG1-F- (periplasm), plasmid pNGAL15
Experimental: (§1) Real time analysis of hNGAL variants was performed on a BIAcore X system (BIAcore, Uppsala, Sweden) using PBS/t (PBS containing 0.005% (v/v) Tween 20) as running buffer. 5 to 27 μg/ml solutions of the Me•DTPA-RNase conjugate in 10 mM Na-acetate, pH 5.0 were immobilized on a CM5 chip using standard amine coupling chemistry, resulting in a ligand density of 240 to 1800 resonance units (RU). The purified hNGAL variant was applied at a flow rate of 5 or 25 μl/min at concentrations of 0.5 up to 500 nM. The sensorgrams were corrected by subtraction of the corresponding signals measured for the control channel, which had been activated and blocked with ethanolamine. Kinetic data evaluation was performed by global fitting with BIAevaluation software V 3.0 (Karlsson et al. (1991) J. Immunol. Methods 145, 229-240). Alternatively, the plateau values at the end of the association phase (after 200 s) were plotted against the applied protein concentration and fitted as in the ELISA (see above) to determine the equilibrium dissociation constants (KO.
(§2) Finally, the hNGAL variants were analyzed by SPR using a Biacore CM-5 chip with the covalently attached Y-DTPA-RNaseA conjugate and applying the purified recombinant proteins (Table 3). […] The improved KD values result primarily from slower ligand dissociation.

[3] = target: T2, hNGAL mutein Tb7.N9, SEQ ID NO: 6 (Tb7 + A79L/I80T) (Homo sapiens, UniProt P80188, C107S/I100T/I61A/K154S/L56R/L90R/Q48H/R101M/S88A/T165A/T74Q/V53Q/W99L/Y158L/Y72T); assay: SPR (Biacore), immobilized Me•DTPA-RNase; type: binding; settings: 5 μl/min
T2 construct: the mature hNGAL protein and the C-terminal Strep-tag II; OmpA signal peptide (N, cleaved yes); made in house; host or cells: E. coli BL21 or TG1-F- (periplasm), plasmid pNGAL15
Experimental: as §1, §2

[4] = target: T3, hNGAL mutein Tb7.N9.N34, SEQ ID NO: 7 (Tb7.N9 + S127Q) (Homo sapiens, UniProt P80188, C107S/I100T/I61A/K154S/L56R/L90R/Q48H/R101M/S147Q/S88A/T165A/T74Q/V53Q/W99L/Y158L/Y72T); assay: SPR (Biacore), immobilized Me•DTPA-RNase; type: binding; settings: 5 μl/min
T3 construct: the mature hNGAL protein and the C-terminal Strep-tag II; Strep-tag II (C); OmpA signal peptide (N, cleaved yes); made in house; host or cells: E. coli BL21 or TG1-F- (periplasm), plasmid pNGAL15
Experimental: as §1, §2

[5] = target: T4, hNGAL mutein Ya6, SEQ ID NO: 8 (Tb7.N9.N34 with Thr136Ser) (Homo sapiens, UniProt P80188, C107S/I100T/I61A/K154S/L56R/L90R/Q48H/R101M/S147Q/S88A/T156S/T165A/T74Q/V53Q/W99L/Y158L/Y72T); assay: SPR (Biacore), immobilized Me•DTPA-RNase; type: binding; settings: 5 μl/min; for Kd: from the kinetic analysis, read-out: KD
T4 construct: the mature hNGAL protein and the C-terminal Strep-tag II; Strep-tag II (C); OmpA signal peptide (N, cleaved yes); made in house; host or cells: E. coli BL21 or TG1-F- (periplasm), plasmid pNGAL15
Experimental: as §1, §2

[6] = system: hNGAL mutein Ya6, SEQ ID NO: 8 (Tb7.N9.N34 with Thr136Ser); assay: SPR (Biacore), immobilized Me•DTPA-RNase; type: binding, human; settings: vs parental Tb7
Experimental: as §1, §2

[7] = target: T5, hNGAL mutein Yd5, SEQ ID NO: 9 (Tb7.N9.N34 + D77E/T136S) (Homo sapiens, UniProt P80188, C107S/D97E/I100T/I61A/K154S/L56R/L90R/Q48H/R101M/S147Q/S88A/T156S/T165A/T74Q/V53Q/W99L/Y158L/Y72T); assay: SPR (Biacore), immobilized Me•DTPA-RNase; type: binding; settings: for Kd: from the kinetic analysis, read-out: KD
T5 construct: the mature hNGAL protein and the C-terminal Strep-tag II; OmpA signal peptide (N, cleaved yes); made in house; host or cells: E. coli BL21 or TG1-F- (periplasm), plasmid pNGAL15
Experimental: as §1, §2

[8] = system: hNGAL mutein Yd5, SEQ ID NO: 9 (Tb7.N9.N34 + D77E/T136S); assay: SPR (Biacore), immobilized Me•DTPA-RNase; type: binding, human; settings: vs parental Tb7
Experimental: as §1, §2

[9] = target: T6, human neutrophil gelatinase-associated lipocalin (hNGAL, lipocalin 2, P80188), wild type, SEQ ID NO: 1 (Homo sapiens, UniProt P80188); assay: SPR (Biacore), immobilized Me•DTPA-RNase; type: binding; settings: immobilized Y-DTPA-RNaseA
T6 construct: the mature hNGAL protein and the C-terminal Strep-tag II; OmpA signal peptide (N, cleaved yes); made in house; host or cells: E. coli BL21 or TG1-F- (periplasm), plasmid pNGAL14
Experimental: as §1, §2

[10] = target: T7, hNGAL mutein C26, SEQ ID NO: 10 (Yd5 + L42P/P48L/Q49L/I55T (155T [sic])/K75M) (Homo sapiens, UniProt P80188, C107S/D97E/I100T/I61A/I75T/K154S/K95M/L56R/L62P/L90R/P68L/Q48H/Q69L/R101M/S147Q/S88A/T156S/T165A/T74Q/V53Q/W99L/Y158L/Y72T); assay: SPR (Biacore), immobilized Me•DTPA-RNase; type: binding
T7 construct: the mature hNGAL protein and the C-terminal Strep-tag II; OmpA signal peptide (N, cleaved yes); made in house; host or cells: E. coli BL21 or TG1-F- (periplasm), plasmid pNGAL15
Experimental: FIG. 2D depicts the kinetic real time analysis of hNGAL variant C26 measured on a Biacore instrument. The Y•DTPA-RNase conjugate was coupled via amine chemistry to a CM5 sensor chip (ΔRU=240) and the purified hNGAL variant C26 was applied at varying concentrations. The measured signal is shown as a grey line whereas the curve fit is depicted as a black line in each case.
as §1, §2

[11] = target: T8, hNGAL mutein L1, SEQ ID NO: 28 (C26 + R43P/E44V/K46P/D47E/K50L/M51L) (Homo sapiens, UniProt P80188, C107S/D67E/D97E/E64V/I100T/I61A/I75T/K154S/K66P/K70L/K95M/L56R/L62P/L90R/M71L/P68L/Q48H/Q69L/R101M/R63P/S147Q/S88A/T156S/T165A/T74Q/V53Q/W99L/Y158L/Y72T); assay: SPR (Biacore), immobilized Y-DTPA-RNaseA; type: binding
T8 construct: the mature hNGAL protein and the C-terminal Strep-tag II; Strep-tag II (C); OmpA signal peptide (N, cleaved yes); made in house; host or cells: E. coli (periplasm)
Experimental: as §1
The new hNGAL variant L1 was analyzed by SPR as in Example 8 using a Biacore CM-5 chip with the covalently attached Y-DTPA-RNaseA conjugate and applying the purified recombinant protein.

[12] = target: T9, hNGAL mutein CL31, SEQ ID NO: 31 (L1 + V44M/N65D/G86S/S87P/S99N/L107F) (Homo sapiens, UniProt P80188, C107P/D67E/D97E/E64M/G106S/I100T/I61A/I75T/K154S/K66P/K70L/K95M/L127F/L56R/L62P/L90R/M71L/N85D/P68L/Q48H/Q69L/R101M/R63P/S119N/S147Q/S88A/T156S/T165A/T74Q/V53Q/W99L/Y158L/Y72T); assay: SPR (Biacore), immobilized Y•DTPA-RNase; type: binding
T9 construct: the mature hNGAL protein and the C-terminal Strep-tag II; Strep-tag II (C); OmpA signal peptide (N, cleaved yes); made in house; host or cells: E. coli (periplasm)
Experimental: FIG. 2E depicts the kinetic real time analysis of hNGAL variant CL31 measured on a Biacore instrument at a flow rate of 25 μl/min. The Y•DTPA-RNase conjugate was coupled via amine chemistry to a CM5 sensor chip (ΔRU=300), and the purified hNGAL variant CL31 was applied at varying concentrations as indicated. The measured signal is shown as a gray line and the fitted curve as a black line in each case.
as §1

[13] = from the kinetic analysis, read-out: KD
[14] = read-out: affinity to the metal chelate ligand

T1 sequence (P80188 21-198 Q48H/V53Q/L56R/I61A/Y72T/T74Q/S88A/L90R/W99A/R101M/C107S/K154S/Y158L/T165A): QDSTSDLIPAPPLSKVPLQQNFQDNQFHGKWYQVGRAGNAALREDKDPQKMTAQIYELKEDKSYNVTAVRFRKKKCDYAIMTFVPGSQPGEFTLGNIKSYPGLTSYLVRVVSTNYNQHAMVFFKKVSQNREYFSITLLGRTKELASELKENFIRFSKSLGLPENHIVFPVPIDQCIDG
T4 sequence (P80188 21-198 with the stated changes): as the sequence (P80188 21-198 Q48H/V53Q/L56R/I61A/Y72T/T74Q/S88A/L90R/W99A/R101M/C107S/K154S/Y158L/T165A) above, with A79L, I80T, S127Q, T136S counted along it
T2 sequence (P80188 21-198 Q48H/V53Q/L56R/I61A/Y72T/T74Q/S88A/L90R/W99L/I100T/R101M/C107S/K154S/Y158L/T165A): as the sequence (P80188 21-198 Q48H/V53Q/L56R/I61A/Y72T/T74Q/S88A/L90R/W99A/R101M/C107S/K154S/Y158L/T165A) above, with A79L, I80T counted along it
T9 sequence (P80188 21-198 with the stated changes): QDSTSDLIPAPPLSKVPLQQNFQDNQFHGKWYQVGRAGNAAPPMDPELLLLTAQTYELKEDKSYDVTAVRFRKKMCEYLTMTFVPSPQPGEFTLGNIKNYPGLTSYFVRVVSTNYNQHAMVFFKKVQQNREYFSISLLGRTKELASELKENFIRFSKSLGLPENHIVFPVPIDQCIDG
T8 sequence (P80188 21-198 with the stated changes): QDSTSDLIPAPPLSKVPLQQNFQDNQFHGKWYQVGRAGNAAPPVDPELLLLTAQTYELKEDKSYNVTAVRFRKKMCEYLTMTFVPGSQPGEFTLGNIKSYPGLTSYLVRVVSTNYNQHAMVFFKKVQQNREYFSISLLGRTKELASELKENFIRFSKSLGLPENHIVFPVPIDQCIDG
T3 sequence (P80188 21-198 with the stated changes): as the sequence (P80188 21-198 Q48H/V53Q/L56R/I61A/Y72T/T74Q/S88A/L90R/W99A/R101M/C107S/K154S/Y158L/T165A) above, with A79L, I80T, S127Q counted along it
T7 sequence (P80188 21-198 with the stated changes): as the sequence (P80188 21-198 Q48H/V53Q/L56R/I61A/Y72T/T74Q/S88A/L90R/W99A/R101M/C107S/K154S/Y158L/T165A) above, with L42P, P48L, Q49L, I55T, K75M, D77E, A79L, I80T, S127Q, T136S counted along it
T5 sequence (P80188 21-198 with the stated changes): as the sequence (P80188 21-198 Q48H/V53Q/L56R/I61A/Y72T/T74Q/S88A/L90R/W99A/R101M/C107S/K154S/Y158L/T165A) above, with D77E, A79L, I80T, S127Q, T136S counted along it
Sequence of selected hNGAL muteins from the library randomized at positions 33, 36, 41, 52, 54, 68, 70, 79, 81, 134, 136 and 138 (P80188 21-198, stated change not applied): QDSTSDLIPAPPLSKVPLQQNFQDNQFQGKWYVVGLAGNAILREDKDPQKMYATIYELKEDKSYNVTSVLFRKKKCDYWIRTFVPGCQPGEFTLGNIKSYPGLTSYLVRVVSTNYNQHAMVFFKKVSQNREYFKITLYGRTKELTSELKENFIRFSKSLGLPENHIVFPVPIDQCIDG
T6 sequence (P80188 21-198, one chain of several): as the sequence (P80188 21-198, stated change not applied) above

Molecule: O=C(O)CCCCCN1C(=O)C2C(C1=O)C1(Cl)C(Cl)=C(Cl)C2(Cl)C1(Cl)Cl (stereo not shown) [hexachloronorbornene hapten, hexachloronorbornene N—(CH2)5—COOH]
KD [1]: at least micromolar

koff [2]: 0.1 s⁻¹
kon [2]: 998000 M⁻¹ s⁻¹
Kd ([2]; listed as Y-DTPA-RNaseA): 75 to 100 nM
Kd [2]: 100 nM
koff [3]: 0.023 s⁻¹
kon [3]: 1.61e+06 M⁻¹ s⁻¹
Kd [3, 13]: 14.3 nM
koff [4]: 0.0208 s⁻¹
kon [4]: 1.57e+06 M⁻¹ s⁻¹
Kd [4, 13]: 13.2 nM
koff [5]: 0.00553 s⁻¹
kon [5]: 1.72e+06 M⁻¹ s⁻¹
Kd ([5]; listed as Y-DTPA-RNaseA): ~3 nM
Kd [5]: 3.2 nM
koff ([7]; 5 μl/min): 0.00345 s⁻¹
kon ([7]; 5 μl/min): 984000 M⁻¹ s⁻¹
Kd ([7]; 5 μl/min, listed as Y-DTPA-RNaseA): ~3 nM
Kd ([7]; 5 μl/min): 3.5 nM
τ1/2 ([7]; half life of dissociation, listed as Y-DTPA-RNaseA): ca. 200 s
koff ([10]; 5 μl/min): 0.000704 s⁻¹
kon ([10]; 5 μl/min): 2.5e+06 M⁻¹ s⁻¹
Kd ([10]; 5 μl/min, from the kinetic analysis, read-out: KD): 0.282 nM
Kd [10, 14]: 0.282 nM
Kd [11]: 0.713 nM
association rate constant [11]: 296000 M⁻¹ s⁻¹
dissociation rate constant [11]: 0.000211 s⁻¹
association rate constant [12]: 446000 M⁻¹ s⁻¹
dissociation rate constant [12]: 0.000106 s⁻¹
half life of dissociation [12]: ca. 1.8 h
Kd [12, 14]: 0.237 nM
B1: Y^3+•DTPA-RNase: p-SCN-Bn-CHX-A″-DTPA covalently coupled to bovine ribonuclease A (about 1:1), charged with Y^3+; ligand is the chelate group (conjugate, UniProt P61823 27-150, looked up)
Ribonuclease pancreatic: KETAAAKFERQHMDSSTSAASSSNYCNQMMKSRNLTKDRCKPVNTFVHESLADVQAVCSQKNVACKNGQTNCYQSYSTMSITDCRETGSSKYPNCAYKTTQANKHIIVACEGNPYVPVHFDASV
modifications: CHX-A''-DTPA chelate with Y3+
notes: p-SCN-Bn-CHX-A″-DTPA covalently coupled to bovine ribonuclease A (about 1:1), charged with Y^3+; ligand is the chelate group
affinity improvement over Tb7 [6]: approximately 30 -fold
affinity improvement over Tb7 [8]: approximately 30 -fold
binding activity [9]: did not exhibit any significant binding activity
